From article PMC2688388

Molecular target: mCeruleanC-α1C,77 (human Cav1.2 calcium channel α1C,77 subunit labeled at the C-tail with mCerulean) (human)
Test: FRET or BRET; two-color FRET (mCerulean/tagRFP) epifluorescence microscopy in COS1 cells, control for cascade transfer: Rβ3 and α1CC without Vα1C

Chain of mCeruleanC-α1C,77 (human Cav1.2 calcium channel α1C,77 subunit labeled at the C-tail with mCerulean) (human) (Q13936 whole entry): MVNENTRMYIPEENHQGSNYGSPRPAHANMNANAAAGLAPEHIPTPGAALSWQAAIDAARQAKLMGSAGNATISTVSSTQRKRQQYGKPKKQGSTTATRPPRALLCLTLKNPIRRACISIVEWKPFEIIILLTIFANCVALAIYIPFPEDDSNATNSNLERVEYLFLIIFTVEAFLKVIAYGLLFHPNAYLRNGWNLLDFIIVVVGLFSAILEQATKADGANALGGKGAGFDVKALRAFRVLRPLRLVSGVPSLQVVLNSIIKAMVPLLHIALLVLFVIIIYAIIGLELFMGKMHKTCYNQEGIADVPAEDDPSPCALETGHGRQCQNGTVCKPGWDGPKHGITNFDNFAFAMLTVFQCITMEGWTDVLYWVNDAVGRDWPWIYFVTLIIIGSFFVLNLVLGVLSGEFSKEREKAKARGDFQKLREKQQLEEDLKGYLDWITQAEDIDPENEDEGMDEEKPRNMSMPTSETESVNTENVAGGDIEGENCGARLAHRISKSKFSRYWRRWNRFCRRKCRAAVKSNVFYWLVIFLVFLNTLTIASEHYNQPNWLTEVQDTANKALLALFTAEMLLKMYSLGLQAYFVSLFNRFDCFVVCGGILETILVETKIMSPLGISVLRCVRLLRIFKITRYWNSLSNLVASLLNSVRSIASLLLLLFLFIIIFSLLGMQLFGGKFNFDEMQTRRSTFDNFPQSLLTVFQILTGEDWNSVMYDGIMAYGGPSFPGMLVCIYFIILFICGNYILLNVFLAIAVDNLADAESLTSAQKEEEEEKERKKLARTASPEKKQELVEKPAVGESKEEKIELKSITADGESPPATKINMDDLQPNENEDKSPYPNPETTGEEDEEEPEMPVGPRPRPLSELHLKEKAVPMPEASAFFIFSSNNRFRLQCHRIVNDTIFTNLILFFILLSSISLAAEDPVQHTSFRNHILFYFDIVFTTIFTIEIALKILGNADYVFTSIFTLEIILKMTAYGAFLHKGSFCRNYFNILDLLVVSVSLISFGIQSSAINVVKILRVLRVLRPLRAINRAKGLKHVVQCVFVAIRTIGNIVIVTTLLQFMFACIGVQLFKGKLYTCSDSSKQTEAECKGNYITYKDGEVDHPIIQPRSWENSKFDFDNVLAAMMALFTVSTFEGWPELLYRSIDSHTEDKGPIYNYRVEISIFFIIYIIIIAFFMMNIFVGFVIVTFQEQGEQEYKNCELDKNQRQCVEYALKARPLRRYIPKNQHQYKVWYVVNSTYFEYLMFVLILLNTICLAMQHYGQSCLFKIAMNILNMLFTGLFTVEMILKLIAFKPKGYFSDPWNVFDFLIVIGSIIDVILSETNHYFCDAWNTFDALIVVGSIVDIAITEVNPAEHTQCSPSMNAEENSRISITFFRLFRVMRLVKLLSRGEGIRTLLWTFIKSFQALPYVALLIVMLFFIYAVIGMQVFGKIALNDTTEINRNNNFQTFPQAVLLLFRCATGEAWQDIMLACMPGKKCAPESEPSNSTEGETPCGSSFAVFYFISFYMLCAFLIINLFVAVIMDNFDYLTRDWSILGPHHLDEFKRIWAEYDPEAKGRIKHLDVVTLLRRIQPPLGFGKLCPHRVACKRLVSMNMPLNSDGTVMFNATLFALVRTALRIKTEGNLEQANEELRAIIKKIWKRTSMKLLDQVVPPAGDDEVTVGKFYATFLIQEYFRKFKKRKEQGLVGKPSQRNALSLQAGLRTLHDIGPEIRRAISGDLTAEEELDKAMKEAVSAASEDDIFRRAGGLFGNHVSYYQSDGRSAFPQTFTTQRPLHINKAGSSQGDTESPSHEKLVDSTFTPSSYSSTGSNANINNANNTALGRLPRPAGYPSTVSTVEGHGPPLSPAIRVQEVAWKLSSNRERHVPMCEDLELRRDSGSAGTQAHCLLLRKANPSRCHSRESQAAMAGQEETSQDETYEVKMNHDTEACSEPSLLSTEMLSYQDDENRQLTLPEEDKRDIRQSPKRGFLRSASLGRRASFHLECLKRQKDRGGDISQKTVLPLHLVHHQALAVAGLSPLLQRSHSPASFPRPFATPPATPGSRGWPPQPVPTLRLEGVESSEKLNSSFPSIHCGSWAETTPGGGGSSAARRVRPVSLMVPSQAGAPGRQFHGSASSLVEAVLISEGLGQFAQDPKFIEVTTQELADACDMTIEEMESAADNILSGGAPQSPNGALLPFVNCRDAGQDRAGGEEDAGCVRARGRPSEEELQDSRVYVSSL

## RFP-β3 (human Cavβ3 subunit with tagRFP fused to the N-terminus) (from UniProt P54284 1-484) (natural protein)
  FRET efficiency: 0.05
